{
  "source": "the supplement of paper PMC9112550",
  "about": "“Optimization of the antimicrobial peptide Bac7 by deep mutational scanning” (BMC Biology, 2022);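 also: peptides expressed intracellularly from a pBAD plasmid library in pooled LB shake-flask culture, induced with 0.3% L-arabinose, DNA abundance read by NGS, three biological replicates, DESeq2 with apeglm shrinkage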",
  "data": [
    {"test_system": "Escherichia coli TOP10", "assay": "shrunken log2 fold change of peptide-encoding DNA abundance (4.5 h post-induction vs induction); higher = less antimicrobial activity (less host growth inhibition)", "settings": "time post-induction: 4.5 h; library: site-saturation at positions 5, 18, 19, 20", "values": [
      {"sequence": "RRIRNRPPRLPRPRPRPVSHPRP", "shrunken log2 fold change": -0.0709},
      {"sequence": "RRIRQRPPRLPRPRPRPCPHPRP", "shrunken log2 fold change": -0.141},
      {"sequence": "RRIRGRPPRLPRPRPRPKEQPRP", "shrunken log2 fold change": 0.0833},
      {"sequence": "RRIRSRPPRLPRPRPRPPTTPRP", "shrunken log2 fold change": 0.391},
      {"sequence": "RRIRPRPPRLPRPRPRPIQKPRP", "shrunken log2 fold change": 0.115},
      {"sequence": "RRIRIRPPRLPRPRPRPLVTPRP", "shrunken log2 fold change": -0.105},
      {"sequence": "RRIRLRPPRLPRPRPRPMIEPRP", "shrunken log2 fold change": -0.00289},
      {"sequence": "RRIRQRPPRLPRPRPRPREGPRP", "shrunken log2 fold change": 0.151},
      {"sequence": "RRIRHRPPRLPRPRPRPTWMPRP", "shrunken log2 fold change": 3.02},
      {"sequence": "RRIRPRPPRLPRPRPRPENWPRP", "shrunken log2 fold change": 0.264},
      {"sequence": "RRIRIRPPRLPRPRPRPATSPRP", "shrunken log2 fold change": -0.273},
      {"sequence": "RRIRHRPPRLPRPRPRPEDFPRP", "shrunken log2 fold change": 0.0333},
      {"sequence": "RRIRSRPPRLPRPRPRPIWKPRP", "shrunken log2 fold change": 0.346},
      {"sequence": "RRIRERPPRLPRPRPRPIPFPRP", "shrunken log2 fold change": -0.0238},
      {"sequence": "RRIRMRPPRLPRPRPRPCKWPRP", "shrunken log2 fold change": 0.0169},
      {"sequence": "RRIRARPPRLPRPRPRPQSQPRP", "shrunken log2 fold change": -0.0155},
      {"sequence": "RRIRCRPPRLPRPRPRPMRQPRP", "shrunken log2 fold change": 0.076},
      {"sequence": "RRIRGRPPRLPRPRPRPPHKPRP", "shrunken log2 fold change": 0.858},
      {"sequence": "RRIRQRPPRLPRPRPRPNYMPRP", "shrunken log2 fold change": -0.226},
      {"sequence": "RRIRIRPPRLPRPRPRPSDEPRP", "shrunken log2 fold change": -0.698},
      {"sequence": "RRIRCRPPRLPRPRPRPCAVPRP", "shrunken log2 fold change": -0.29},
      {"sequence": "RRIRIRPPRLPRPRPRPVCGPRP", "shrunken log2 fold change": -0.0405},
      {"sequence": "RRIRNRPPRLPRPRPRPLSCPRP", "shrunken log2 fold change": -0.238},
      {"sequence": "RRIRFRPPRLPRPRPRPTNNPRP", "shrunken log2 fold change": -0.644},
      {"sequence": "RRIRPRPPRLPRPRPRPHWVPRP", "shrunken log2 fold change": -0.137},
      {"sequence": "RRIRGRPPRLPRPRPRPKDDPRP", "shrunken log2 fold change": 0.293},
      {"sequence": "RRIRVRPPRLPRPRPRPYNMPRP", "shrunken log2 fold change": -0.979},
      {"sequence": "RRIRWRPPRLPRPRPRPICKPRP", "shrunken log2 fold change": -0.0506},
      {"sequence": "RRIRNRPPRLPRPRPRPDWAPRP", "shrunken log2 fold change": -0.0406},
      {"sequence": "RRIRLRPPRLPRPRPRPFTVPRP", "shrunken log2 fold change": 0.0023},
      {"sequence": "RRIRKRPPRLPRPRPRPLMLPRP", "shrunken log2 fold change": 0.007},
      {"sequence": "RRIRFRPPRLPRPRPRPEPVPRP", "shrunken log2 fold change": 0.326},
      {"sequence": "RRIRYRPPRLPRPRPRPDAFPRP", "shrunken log2 fold change": -1.27},
      {"sequence": "RRIRWRPPRLPRPRPRPYYYPRP", "shrunken log2 fold change": -0.473},
      {"sequence": "RRIRCRPPRLPRPRPRPVYYPRP", "shrunken log2 fold change": -0.363},
      {"sequence": "RRIRVRPPRLPRPRPRPMCTPRP", "shrunken log2 fold change": -0.0103},
      {"sequence": "RRIRWRPPRLPRPRPRPGATPRP", "shrunken log2 fold change": 1.02},
      {"sequence": "RRIRGRPPRLPRPRPRPGAYPRP", "shrunken log2 fold change": 0.339},
      {"sequence": "RRIRTRPPRLPRPRPRPSIPPRP", "shrunken log2 fold change": -0.356},
      {"sequence": "RRIRYRPPRLPRPRPRPRGCPRP", "shrunken log2 fold change": -0.286},
      {"sequence": "RRIRERPPRLPRPRPRPVRGPRP", "shrunken log2 fold change": 0.543},
      {"sequence": "RRIRYRPPRLPRPRPRPWTNPRP", "shrunken log2 fold change": -0.00804},
      {"sequence": "RRIRMRPPRLPRPRPRPRHQPRP", "shrunken log2 fold change": 0.155},
      {"sequence": "RRIRERPPRLPRPRPRPYCTPRP", "shrunken log2 fold change": -1.13},
      {"sequence": "RRIRWRPPRLPRPRPRPPRMPRP", "shrunken log2 fold change": 0.348},
      {"sequence": "RRIRGRPPRLPRPRPRPIYVPRP", "shrunken log2 fold change": 1.23},
      {"sequence": "RRIRWRPPRLPRPRPRPRGNPRP", "shrunken log2 fold change": 0.423},
      {"sequence": "RRIRVRPPRLPRPRPRPWFLPRP", "shrunken log2 fold change": -0.386},
      {"sequence": "RRIRLRPPRLPRPRPRPVFYPRP", "shrunken log2 fold change": -0.5},
      {"sequence": "RRIRNRPPRLPRPRPRPCHTPRP", "shrunken log2 fold change": -0.316},
      {"sequence": "RRIRMRPPRLPRPRPRPHPCPRP", "shrunken log2 fold change": 0.046},
      {"sequence": "RRIRWRPPRLPRPRPRPKMRPRP", "shrunken log2 fold change": 1.25},
      {"sequence": "RRIRYRPPRLPRPRPRPFDHPRP", "shrunken log2 fold change": -0.0332},
      {"sequence": "RRIRCRPPRLPRPRPRPIGPPRP", "shrunken log2 fold change": 0.112},
      {"sequence": "RRIRIRPPRLPRPRPRPEGGPRP", "shrunken log2 fold change": 0.155},
      {"sequence": "RRIRVRPPRLPRPRPRPQCYPRP", "shrunken log2 fold change": -0.189},
      {"sequence": "RRIRPRPPRLPRPRPRPTCSPRP", "shrunken log2 fold change": 0.265},
      {"sequence": "RRIRCRPPRLPRPRPRPNTDPRP", "shrunken log2 fold change": -0.27},
      {"sequence": "RRIRFRPPRLPRPRPRPKVDPRP", "shrunken log2 fold change": -0.0492},
      {"sequence": "RRIRKRPPRLPRPRPRPGMCPRP", "shrunken log2 fold change": 0.863},
      {"sequence": "RRIRVRPPRLPRPRPRPANHPRP", "shrunken log2 fold change": -0.0489},
      {"sequence": "RRIRFRPPRLPRPRPRPHINPRP", "shrunken log2 fold change": -0.634},
      {"sequence": "RRIRMRPPRLPRPRPRPQMVPRP", "shrunken log2 fold change": -0.243},
      {"sequence": "RRIRWRPPRLPRPRPRPYGAPRP", "shrunken log2 fold change": -0.0532},
      {"sequence": "RRIRTRPPRLPRPRPRPFHRPRP", "shrunken log2 fold change": -0.469},
      {"sequence": "RRIRARPPRLPRPRPRPMTSPRP", "shrunken log2 fold change": 0.237},
      {"sequence": "RRIRPRPPRLPRPRPRPYNSPRP", "shrunken log2 fold change": -0.55},
      {"sequence": "RRIRSRPPRLPRPRPRPVTSPRP", "shrunken log2 fold change": -0.132},
      {"sequence": "RRIRKRPPRLPRPRPRPECVPRP", "shrunken log2 fold change": 1.69},
      {"sequence": "RRIRKRPPRLPRPRPRPKTNPRP", "shrunken log2 fold change": 0.485},
      {"sequence": "RRIRCRPPRLPRPRPRPNEGPRP", "shrunken log2 fold change": -0.1},
      {"sequence": "RRIRERPPRLPRPRPRPLWWPRP", "shrunken log2 fold change": 0.0601},
      {"sequence": "RRIRKRPPRLPRPRPRPLCPPRP", "shrunken log2 fold change": -0.145},
      {"sequence": "RRIRSRPPRLPRPRPRPCISPRP", "shrunken log2 fold change": -0.0391},
      {"sequence": "RRIRKRPPRLPRPRPRPIFDPRP", "shrunken log2 fold change": 0.205}
    ]}
  ]
}
